B1: ZBTB22 (parent)
chain: FSSSSQEAFAASAVGSGERRGGGP
B2: TPD52L2 (parent)
chain: EAEEEELRAELTKVEEEIVTLRQV

Variants of: B1
Experiment: protein stability index of a GFP-peptide fusion (GPS, HEK-293T) (PSI 1-6); higher = more stable
Settings: c terminus: a fixed tail appended
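Note: lentivirally expressed fusions sorted by FACS into six bins by GFP to DsRed ratio, PSI derived from sequencing read proportions per bin multiplied by bin number.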

Protein stability index, by site and new letter:
Q6: F 2.18 | N 3.32 | E 4.4 | K 1.31 | D 4.44 | Y 2.13 | C 3.77 | R 3
S3: A 3.41 | E 4.38 | G 2.35 | K 4.3 | L 4.05 | P 2.99 | T 4.04 | M 4.2 | N 3.76 | H 4.13 | F 3.37 | D 4.36 | Y 3.71 | C 2.97
E18: C 2.96 | Y 2.69 | S 2.28 | T 2.87 | K 3.31 | I 2.36 | D 2.98 | H 3.65 | P 2.97 | L 2.85 | F 2.86 | N 2.55
V14: C 3.36 | T 3.27 | W 1.32 | D 4.5 | I 2.55 | M 3.25 | L 3.77 | F 2.99 | P 3.9 | N 3.33 | A 3.76 | E 3.85 | G 3.56 | R 3.65 | Q 3.52 | Y 2.76
P24: I 2.6 | A 3.5 | Q 2.79 | F 2.73 | C 3.21 | Y 2.86 | G 2.6 | N 3.29 | D 3.89 | K 3.33 | T 3.07 | V 2.92 | L 3.32 | H 3.75
S5: K 3.91 | D 4.27 | Y 1.95 | E 4.15 | T 4.41 | A 2.71 | C 2.79 | Q 4.35 | F 2.45 | W 2.87 | I 3.62 | M 2.4 | L 3.66 | H 2.86 | V 4.15
A8: F 2.55 | S 4.18 | G 4.44 | C 2.47 | K 3.79 | P 3.94 | N 4.21 | H 3.86 | D 5.19 | Q 4.09 | T 3.46 | Y 1.88 | M 2.17 | R 3.96 | V 2.11
F1: K 5.04 | N 5.02 | S 4.85 | M 5.13 | C 3.94 | W 5.09 | I 5.3 | A 4.9 | Q 5.01 | T 5.39 | L 5.29 | V 5.17 | R 5.67 | G 5.5
S2: Q 2.55 | K 4.86 | D 5.17 | A 2.29 | I 2.26 | G 2.2 | M 4.01 | W 3.16 | L 3.13 | T 2.53 | E 5.12 | V 2.29 | C 2.62 | N 4.13
R19: F 3.15 | S 3.86 | M 3.35 | D 2.53 | Q 3.47 | N 3.49 | W 2.04 | I 3.23 | H 3.34 | L 2.87 | T 3.78 | C 3.07 | A 3.43 | E 4.24
S12: F 1.47 | P 3.36 | V 2.87 | E 3.58 | I 2.26 | H 2.94 | Y 1.85 | R 2.61 | Q 3.71 | A 3.56 | G 3.61 | K 3.68 | C 2.54 | D 3.48 | N 3.26
A11: L 3.04 | S 3.88 | N 3.88 | C 1.95 | I 2.32 | W 1.86 | H 3.02 | V 2.13 | Q 3.44 | R 3.74 | E 3.85 | K 4.5 | D 4.39 | F 2.19 | Y 3.13

Variants of: B2
Experiment: as above
Settings: c terminus: a fixed tail appended

Protein stability index: each site, then its substitutions
V24: Y 3.83

— the supplement of paper PMC10567573
